From PMC6138654 come the findings set out here.

The test addresses αβ-tubulin (tubulin dimer; as free tubulin, Tau-induced microtubules or Taxol-stabilized microtubules) (lamb (purified from lamb brains)).

Sequence of Tau F4 fragment labeled with MTSL (F4^MTSL) (P10636 525-641): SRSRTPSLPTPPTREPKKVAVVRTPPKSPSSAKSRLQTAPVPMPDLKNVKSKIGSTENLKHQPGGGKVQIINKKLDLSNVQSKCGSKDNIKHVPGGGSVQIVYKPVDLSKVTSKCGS

In the case of “Tau F4 fragment C291S mutant labeled with MTSL on C322 (C322^MTSL) (from UniProt P10636-8 208-324) (domain or fragment)”, the k of MTSL label release (thiol-disulfide exchange) by EPR, h(−1)/h(0) against time; Tau-MTs (induced), 10 µM labeled protein, 1:2 with tubulin, 37 °C came to 0.077 min⁻¹.
Still for that read-out and setting: under “Tau F4 fragment C322S mutant labeled with MTSL on C291 (C291^MTSL) (from UniProt P10636-8 208-324) (domain or fragment)” stands 0.127 min⁻¹.
The substance “Tau F4 fragment labeled with MTSL (F4^MTSL) (from UniProt P10636-8 208-324) (domain or fragment)” returned a k of MTSL label release (thiol-disulfide exchange) by EPR, h(−1)/h(0) against time; Induced-MTs, 10 µM labeled protein, 1:2 with tubulin, 37 °C of 0.217 min⁻¹ and a k of MTSL label release (thiol-disulfide exchange) by EPR, h(−1)/h(0) against time; Taxol-MTs, 10 µM labeled protein, 1:2 with tubulin, 37 °C of 0.025 min⁻¹.
